Biological target: Human Leukocyte Antigen (HLA) on the surface of human cells (human)
Experiment: cell-based or functional assay

Substance “anti-HLA monoclonal antibody clone W6/32 (mouse, ThermoFisher)” has an antibody concentration of highest luciferase transduction of SKBR3 cells of 10 µg/mL.
